Target: T1, human TNF-alpha (Peprotech, London, UK) (human, UniProt P01375 77-233)
T1 construct: Commercial recombinant protein
Assay: direct ELISA, plates coated with 0.5 µg/ml human TNF-alpha; ESBA105 standard series 50-0.5 ng/ml; used to quantify ESBA105 in serum and brain tissue
Procedure: ESBA105 concentrations were determined by triplicate measurements of each sample in a direct ELISA. 96-well plates (NUNC MaxiSorp; Omnilab, Mettmenstetten, Switzerland) were coated with 0.5 μg/ml human TNF-alpha (Peprotech, London, UK) in PBS overnight at 4° C. Between each of the following steps plates were washed three times with TBS-T (0.005% Tween20; Axon Lab, Baden-Dattwyl, Switzerland) using a micro plate washer (ASYS Atlantis, Salzburg, Austria). Unspecific binding sites were saturated by 1.5 hour incubation in PBS/1% BSA/0.2% Tween20. […] Bound ESBA105 was detected with a biotinylated affinity purified polyclonal rabbit anti-ESBA105 antibody (AK3A, ESBATech, Schlieren, Switzerland) that was diluted 1:20′000 in dilution buffer (1.5 h, room temperature). AK3A, in turn, was detected with poly-horseradish peroxidase streptavidin (Stereospecific Detection Technologies, Baesweiler, Germany) at a concentration of 0.2 ng/ml dilution buffer. […] Absorbance was measured at 450 nm in a plate reader (Sunrise; Tecan, Maennedorf, Switzerland) and ESBA105 concentrations in samples were calculated by polynomial regression from a standard curve (GraphPad Prism 4.03; GraphPad Software, Inc., San Diego, Calif.). The minimum quantifiable concentration (LOQ) of ESBA105 was 5 ng/ml in serum and 33 ng/ml in brain tissue, respectively.

T1 sequence (P01375 77-233 limits assumed): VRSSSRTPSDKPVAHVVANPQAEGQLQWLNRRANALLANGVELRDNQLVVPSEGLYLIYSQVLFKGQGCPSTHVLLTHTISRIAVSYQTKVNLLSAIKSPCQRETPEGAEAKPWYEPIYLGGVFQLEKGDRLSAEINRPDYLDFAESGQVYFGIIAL

binding result: binds
B1: ESBA105 (scFv)
scFv: MADIVMTQSPSSLSASVGDRVTLTCTASQSVSNDVVWYQQRPGKAPKLLIYSAFNRYTGVPSRFSGRGYGTDFTLTISSLQPEDVAVYYCQQDYNSPRTFGQGTKLEVKRGGGGSGGGGSGGGGSSGGGSQVQLVQSGAEVKKPGASVKVSCTASGYTFTHYGMNWVRQAPGKGLEWMGWINTYTGEPTYADKFKDRFTFSLETSASTVYMELTSLTSDDTAVYYCARERGDAMDYWGQGTLVTVSS
notes: also called ESBA105 scFv (α-TNFalpha); E105

Source: patent US20110135644A1 (ESBATECH AN ALCON BIOMEDICAL RESEARCH UNIT, published 2011)
